Laboratory results reported in patent publication US20240261446A1 (UNIVERSIT DE LI GE, published 2024).

Legend:
[1] = biological target: T1, recombinant biotinylated CD38 (human, UniProt P28907 43-300, biotinylated (sites not given)); test: BLI
T1 construct: also called biotinylated CD38 antigen; biotin-labelled recombinant CD38 protein
T1 sequence: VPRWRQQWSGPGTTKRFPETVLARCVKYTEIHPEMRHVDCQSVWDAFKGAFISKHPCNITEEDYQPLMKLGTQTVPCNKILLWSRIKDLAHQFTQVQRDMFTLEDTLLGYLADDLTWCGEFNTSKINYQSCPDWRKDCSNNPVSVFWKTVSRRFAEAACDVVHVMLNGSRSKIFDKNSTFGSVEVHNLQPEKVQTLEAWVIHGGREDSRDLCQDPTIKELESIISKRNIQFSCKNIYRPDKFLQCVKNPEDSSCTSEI

[2] = biological target: T1, recombinant biotinylated CD38; test: BLI, biotinylated CD38 on streptavidin sensors, 1:1 model
[3] = biological target: T1, recombinant biotinylated CD38; test: biolayer interferometry; biotinylated CD38 on streptavidin sensors; 1:1 binding model
Method: Next, the ability of the anti-CD38 nanobodies to recognise the biotinylated CD38 antigen was investigated by Biolayer Interferometry (BLI) that allows determination of the binding kinetics parameters. The binding affinities were estimated by testing different concentrations (seven) of nanobodies with BLI. These experiments were realised in a 96-well plate and consisted of different steps. First, recombinant and biotinylated CD38 (10 μg/mL) was loaded on the surface of streptavidin-coupled sensors and washed using a PBS-based buffer (PBS 50 mM pH 7, BSA 0.1%, Tween 0.02%) in order to remove any unbound CD38. Then, biocytin was added to saturate the sensors and to avoid non-specific interactions during the subsequent association step. Afterwards, the nanobodies were diluted at concentrations and brought in contact with the CD38 coated sensors to monitor the association of the nanobodies to the receptors. […] Octet Data Analysis software version 8.0 was used for curve fitting and the determination of the binding parameters, including the KD, using a 1:1 binding model.

[4] = biological target: T2, human CD38 receptor expressed on cells (RPMI-8226 and other CD38+ cell lines) (human, UniProt P28907 1-300); test: saturation binding of the radiolabelled nanobody on CD38+ RPMI-8226 cells, 1 hour at 4 °C
T2 construct: Endogenous CD38 of human myeloma and lymphoma cell lines; also called CD38^+ RPMI-8226 cells
T2 sequence: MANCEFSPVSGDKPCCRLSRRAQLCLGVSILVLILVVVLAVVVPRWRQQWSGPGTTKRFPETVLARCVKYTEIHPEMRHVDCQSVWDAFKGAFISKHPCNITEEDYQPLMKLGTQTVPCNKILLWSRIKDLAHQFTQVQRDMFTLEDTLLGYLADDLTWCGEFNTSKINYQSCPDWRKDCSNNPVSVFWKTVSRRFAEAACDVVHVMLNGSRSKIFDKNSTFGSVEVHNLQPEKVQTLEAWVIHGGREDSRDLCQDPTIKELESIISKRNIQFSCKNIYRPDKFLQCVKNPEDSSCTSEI

[5] = biological target: T1, recombinant biotinylated CD38; test: BLI, biotinylated CD38 on streptavidin sensors, 10 to 150 nM conjugate, 1:1 model
Method: First, recombinant and biotinylated CD38 (1 μg/mL) was loaded on the surface of streptavidin-coupled sensors and washed using a PBS-based buffer in order to remove any unbound CD38. Then, biocytin was added to saturate the sensors and to avoid non-specific interactions during the subsequent association step. Afterwards, the nanobodies-PNA1 were diluted at concentrations and brought in contact with the CD38 coated sensors to monitor the association of the nanobodies to the receptors. Finally, the sensors were placed in a fresh buffer in order to measure the dissociation rate of the nanobodies-PNA1 from the receptors. Octet Data Analysis software version 8.0 was used for curve fitting and the determination of the binding parameters, including the KD, using a 1:1 binding model.

[6] = biological target: T1, recombinant biotinylated CD38; test: BLI, immobilised CD38 on SA sensors, OctetHTX, conjugate 100 to 20 nM
Method: Values are from a serial dilution of conjugate from 100 to 20 nM.

B1: anti-CD38 nanobody 2F8 (Nb2F8) with C-terminal hexahistidine tag (VHH)
VHH: QVQLVESGGGSVQAGGSLRLSCAASGYTDSDYIMAWFRQAPGKEREVVATIYIGGTYIHYADSVKGRFTISRDNAENTVYLQMNNLKPEDTAMYYCAATKWRPFISTRAAEYNYWGQGTLVTVSS
notes: Produced in E. coli WK6 with a His6 tag and also in an untagged form; The flow cytometry used the His-tagged form (anti-His detection); also called sdAb 2F8
Question: How did the Kd [1] turn out when B1 was run?
Answer: 1.46 nM

Question: What about the Kd [2] of the same binder?
Answer: 0.73 nM

Question: What about the Kd [3] of the same binder?
Answer: 0.734 nM

B2: ^111In-DTPA-Nb2F8 (VHH)
VHH: QVQLVESGGGSVQAGGSLRLSCAASGYTDSDYIMAWFRQAPGKEREVVATIYIGGTYIHYADSVKGRFTISRDNAENTVYLQMNNLKPEDTAMYYCAATKWRPFISTRAAEYNYWGQGTLVTVSS
modifications: CHX-A''-DTPA on lysine epsilon-amino groups (positions not stated), chelating Indium-111
Question: How did the Kd [4] turn out when B2 was run?
Answer: 16.7 nM

B3: Nb2F8-PNA1 conjugate (VHH)
VHH: QVQLVESGGGSVQAGGSLRLSCAASGYTDSDYIMAWFRQAPGKEREVVATIYIGGTYIHYADSVKGRFTISRDNAENTVYLQMNNLKPEDTAMYYCAATKWRPFISTRAAEYNYWGQGTLVTVSS
modifications: the C-terminal GGGSS is continued by the peptide nucleic acid a-g-t-c-t-g-g-a-t-g-t-a-g-t-c (SEQ ID NO: 15) and then E-K(DOTA)-AEEA-E-NH2
notes: Made by Sortase A ligation of PNA1 to Nb2F8-FL-SR-His6 and purified by reverse IMAC; also called nanobody 2F8 coupled with the PNA1
Question: How did the Kd [5] turn out when B3 was run?
Answer: 13.4 nM

B4: sdAb 2F8 conjugated to the bifunctional chelator DTPA (2F8-DTPA) (VHH)
VHH: QVQLVESGGGSVQAGGSLRLSCAASGYTDSDYIMAWFRQAPGKEREVVATIYIGGTYIHYADSVKGRFTISRDNAENTVYLQMNNLKPEDTAMYYCAATKWRPFISTRAAEYNYWGQGTLVTVSS
modifications: CHX-A''-DTPA conjugated to the free epsilon-amino groups of lysines (number and positions not stated)
notes: also called Nb2F8-DTPA conjugate
Question: What does the source list for B4?
Answer: Kd [6]: 1.6 nM; koff [6]: 0.000412 s⁻¹; kon [6]: 258000 M⁻¹ s⁻¹
